Here are results for two molecules from patent US20210113587A1 (ADC THERAPEUTICS, published 2021).

The target of experiment [1] is T1, human CD25 on concanavalin-A activated CD25-positive human PBMCs and CD25-expressing lymphoma cell lines (human, UniProt P01589 22-272).
T1 construct: whole, on cells; also called IL2R-α; Interleukin-2 receptor-α
T1 sequence (looked up): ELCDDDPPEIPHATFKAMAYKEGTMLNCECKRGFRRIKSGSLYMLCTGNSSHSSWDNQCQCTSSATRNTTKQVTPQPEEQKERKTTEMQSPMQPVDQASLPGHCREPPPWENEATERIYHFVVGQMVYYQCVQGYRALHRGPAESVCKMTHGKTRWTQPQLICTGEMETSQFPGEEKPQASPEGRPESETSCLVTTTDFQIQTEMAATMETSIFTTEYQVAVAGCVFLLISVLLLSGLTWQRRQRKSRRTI
Kind of experiment: flow cytometry, MFI on concanavalin-A activated CD25-positive human PBMCs (CD25-PE gate). As to the method: FIG. 1. […] Isotype, non-targeting-ADC-FITC was used as the non-binding ADC control. The EC₅₀ was ≈0.03 μg/ml (180 pM).
A general note: Flow cytometry measures light scatter and fluorescence of single cells or particles in a stream.

Experiment [2] concerns the target T2, human recombinant soluble CD25 ectodomain (human, UniProt P01589 22-240).
T2 construct: extracellular domain; Immobilised on a Biacore CM3 chip; also called sCD25 ectodomain; human sCD25 ectodomain
T2 sequence (looked up): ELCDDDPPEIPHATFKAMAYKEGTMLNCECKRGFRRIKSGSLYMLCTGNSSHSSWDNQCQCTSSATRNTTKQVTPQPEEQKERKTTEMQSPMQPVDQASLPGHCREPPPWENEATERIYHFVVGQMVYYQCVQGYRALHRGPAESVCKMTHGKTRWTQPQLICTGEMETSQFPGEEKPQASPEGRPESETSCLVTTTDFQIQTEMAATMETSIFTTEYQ
In words: SPR (Biacore CM3 chip), sCD25 ectodomain immobilised; run 6. As to the method: (§1) The equilibrium dissociation constant, KD, was calculated for both molecules using BIAevaluation ® software.
On the technique in general: SPR reads the build-up and loss of mass on a sensor chip optically.

Experiment [3] deals with T2, human recombinant soluble CD25 …. Kind of experiment: SPR (Biacore CM3 chip), sCD25 ectodomain immobilised; mean of runs. As to the method:
as §1

Experiment [4] has the same target. In words: SPR (Biacore CM3 chip), sCD25 ectodomain immobilised; run 1. How it is done:
as §1

Experiment [5] shares this target. In words: SPR (Biacore CM3 chip), sCD25 ectodomain immobilised; run 3. As to the method: as §1
For experiment [6] the target is unchanged. Kind of experiment: SPR (Biacore CM3 chip), sCD25 ectodomain immobilised; run 2. As to the method:
as §1

For experiment [7] the target is unchanged. In words: SPR (Biacore CM3 chip), sCD25 ectodomain immobilised; run 4. How it is done:
as §1

The target is the same in experiment [8]. In words: SPR (Biacore CM3 chip), sCD25 ectodomain immobilised; run 5. As to the method: as §1

B1: ADCT-301 (antibody, V domains shown)
VH: QVQLVQSGAEVKKPGSSVKVSCKASGGTFSRYIINWVRQAPGQGLEWMGRIIPILGVENYAQKFQGRVTITADKSTSTAYMELSSLRSEDTAVYYCARKDWFDYWGQGTLVTVSS
VL: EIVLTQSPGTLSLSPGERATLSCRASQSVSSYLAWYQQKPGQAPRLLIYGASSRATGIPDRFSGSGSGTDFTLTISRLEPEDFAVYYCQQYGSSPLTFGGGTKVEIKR
modifications: pyrrolobenzodiazepine (PBD) warhead attached by a cleavable linker, drug-antibody ratio 2.3±0.3; attachment residues not stated
notes: also called HuMax-TAC-E of WO2014/57119
One may read the EC50 as the concentration at which the effect is half-maximal. One may read the Kd as the concentration at which binding is half-saturated. B1 displayed an EC50 in experiment [1] of approximately 0.18 nM. The Kd amounted to 0.0244 nM in experiment [2]; 0.0209 nM in experiment [3]; 0.0205 nM in experiment [4]; 0.0207 nM in experiment [5]; 0.0205 nM in experiment [6]; 0.0179 nM in experiment [7]. Besides, in experiment [8], the Kd came to 0.0212 nM.

B2: HuMax®-TAC (antibody, V domains shown)
VH: B1 VH
VL: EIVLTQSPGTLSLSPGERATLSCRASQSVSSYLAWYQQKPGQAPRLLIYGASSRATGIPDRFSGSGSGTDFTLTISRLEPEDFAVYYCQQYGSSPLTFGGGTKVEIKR
notes: also called AB12; naked antibody
In the case of B2, the Kd came to 0.0158 nM in experiment [3]; 0.0146 nM in experiment [4]; 0.0191 nM in experiment [5]; 0.016 nM in experiment [6]; 0.0148 nM in experiment [7]; 0.0144 nM in experiment [8].
